Assay results published in doi:10.1101/2025.10.24.684422.
Blank lines part the entries; values can stand above or below the substance they belong to.

Columns and labels:
[1] = target: HSL3 ectodomain Gln120Ala (Arabidopsis thaliana); experiment: ITC
[2] = target: HAESA-LIKE 3 (HSL3) ectodomain, wild type (Arabidopsis thaliana); experiment: ITC

fold reduction in binding affinity against wild-type HSL3 [1]: 60 fold
Substance: CTNIP4(46-70)_(Cys-Cys) (peptide)

fold reduction in binding against CTNIP4(46-70) (Cys-Cys) [2]: 4 fold
Substance: CTNIP4(47-70)_(Cys-Cys) (peptide)

fold loss of affinity against CTNIP4(46-70) (Cys-Cys) [2]: 200 fold
Substance: CTNIP4(48-70)_(Cys-Cys) (peptide)

fold reduction in binding affinity against CTNIP4(46-70) (Cys-Cys) [2]: 200 fold
Substance: CTNIP4^C58A(46-63) (peptide)

fold impairment of binding against CTNIP4(46-70) (Cys-Cys) [2]: 200 fold
Substance: CTNIP4^C58A.C68A(46-70) (peptide)

fold reduction in binding affinity against CTNIP4(46-70) (Cys-Cys) [2]: 120 fold
Substance: CTNIP4^I61Y (peptide)
